Residue numbers refer to the chain shown, from its start.
What was measured:
[1] = system: cancer, cardiac and neuronal cell lines; experiment: Categorisation of active ADPs as pro-/anti-apoptotic (Example 15); conditions: criteria of Example 15
[2] = Effectiveness of ADPs (Example 1, Table 6; cell death assays of FIGS. 10-13); type: cell-based; conditions: ADPs with N-terminal tumor penetrating peptide and C-terminal fluorescent tag; graded in words
Source text: FIGS. 10A-C show the sequences mapped, peptide blots, imaging to show expression and cell death assays for these three peptides. A) PPA-1 (PEPTIDE23) (SEQ ID NO:23), B) PPA4 (PEPTIDE19) (SEQ ID NO:19), C) PPA10 (PEPTIDE16 including FF at C-terminus) (SEQ ID NO:16).
FIGS. 11A-B show the sequences mapped, peptide blots, imaging to show expression and cell death assays for these HSP-70 peptides. A) PHA4 (PEPTIDE5) (SEQ ID NO:5), B) PHA5 (PEPTIDE13 plus C-terminal L) (SEQ IDS NO: 13).
FIGS. 12A-C show the sequences mapped, peptide blots, imaging to show expression and cell death assays for these p65 (RELA) peptides. A) PRA1 (PEPTIDE14) (SEQ ID NO:14), B) PRA8 (PEPTIDE8) (SEQ ID NO:8), C) PRA9 (SEQ ID Nos:33 and 37-45).
FIGS. 13A-D show the sequences mapped, peptide blots, imaging to show expression and cell death assays for these HSP-70 peptides. A) PAA1-1 (PEPTIDE11) (SEQ ID NO:11), B) PPA1-3 (PEPTIDE15) (SEQ ID NO:15), C) PAR1 (PEPTIDE19), D) Paint 1 (PEPTIDE7) (SEQ ID NO:7).
ADPs were first identified using Peptide SPOT analysis. Peptides were identified from AKIP1. PKAc, HSP-70 and p65 sequences. The identified ADPs were attached at the N-terminus to tumor penetrating peptide based on the CENDR rule (FIG. 9). A fluorescent tag was attached to the C-terminus for ease of visualization. […]

B1: KSQVISNAKNTVQGFKRFHGRAFSDPFVEAEKSNLAYDIVQWPTGLTGIKVTYMEEERNFTTEQVTAMLLSKLKETAESVLKKPVV (peptide)
chain: KSQVISNAKNTVQGFKRFHGRAFSDPFVEAEKSNLAYDIVQWPTGLTGIKVTYMEEERNFTTEQVTAMLLSKLKETAESVLKKPVV
Pro-apoptotic (anti-angiogenic) category [1]: Pro-apoptotic (anti-angiogenic)

B2: KSQVISNAKNTVQGFKRFHGRAFSDPFVEAEKSNLAYDIVQWPTGLTGIKVTYMEEERNFTIEQVTAMLLSKLKETAESVLKKPVV (peptide)
chain: B1 chain with T62I
Effectiveness [2]: Moderate

From patent US11608367B2, “Peptides for angiogenic therapy” (The Regents of the University of California, priority 2018, dated 2023)
